From paper PMC9482650, “Quantitative fragmentomics allow affinity mapping of interactomes” (Nature Communications, 2022) come the findings set out here.

Targets include FRMPD2_1, Q68DX3; DLG4_2, P78352; LIMK2, P53671; NHERF4_4, Q86UT5; LAP2, Q96RT1; IL16_1, Q14005; NHERF4_2, Q86UT5; Inadl_3, Q8NI35; LNX1_3, Q8TBB1.
Holding throughout (assay): holdup assay
Design in all cases: key: below the threshold = too weak to quantify, mostly under pKd 3.1 to 4

The next assay deals with T1, MPP7, Q5T2T1.
T1 sequence (Q5T2T1 134-230, limits assumed, looked up): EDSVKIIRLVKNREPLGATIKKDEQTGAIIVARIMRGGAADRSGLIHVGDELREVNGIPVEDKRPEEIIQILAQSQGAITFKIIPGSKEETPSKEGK

The next assay has as its target T2, LNX2_3, Q8N448.
T2 sequence (Q8N448 463-564, limits assumed, looked up): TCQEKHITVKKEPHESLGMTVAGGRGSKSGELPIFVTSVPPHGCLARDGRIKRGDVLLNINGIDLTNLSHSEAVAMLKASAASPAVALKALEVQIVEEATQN

The target in the next assay is T3, MPP6, Q9NZW5.
T3 sequence (Q9NZW5 125-219, limits assumed, looked up): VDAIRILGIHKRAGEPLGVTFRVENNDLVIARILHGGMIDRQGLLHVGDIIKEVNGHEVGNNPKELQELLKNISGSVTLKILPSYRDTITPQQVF

The next assay deals with T4, SHANK1, Q9Y566.
T4 sequence (Q9Y566 658-767, limits assumed, looked up): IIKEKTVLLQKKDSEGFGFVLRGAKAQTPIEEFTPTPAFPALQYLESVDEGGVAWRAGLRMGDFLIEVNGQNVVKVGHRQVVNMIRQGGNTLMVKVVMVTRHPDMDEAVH

A further assay addresses T5, APBA2_2, Q99767.
T5 sequence (Q99767 654-744, limits assumed, looked up): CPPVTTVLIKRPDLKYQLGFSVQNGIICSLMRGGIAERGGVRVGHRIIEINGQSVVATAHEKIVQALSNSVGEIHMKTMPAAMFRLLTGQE

For a further assay, the target named is T6, MPDZ_10, O75970.
T6 sequence (O75970 1624-1722, limits assumed, looked up): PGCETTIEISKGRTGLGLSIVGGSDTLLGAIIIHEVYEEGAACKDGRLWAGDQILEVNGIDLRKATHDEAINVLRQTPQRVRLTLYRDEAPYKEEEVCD

For another assay, the target named is T7, DFNB31_2, Q9P202.
T7 sequence (Q9P202 274-371, limits assumed, looked up): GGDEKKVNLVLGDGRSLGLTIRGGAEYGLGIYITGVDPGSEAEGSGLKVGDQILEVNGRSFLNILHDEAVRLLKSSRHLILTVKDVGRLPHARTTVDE

A further assay deals with T8, NHERF3_3, Q5T2W1.
T8 sequence (Q5T2W1 238-333, limits assumed, looked up): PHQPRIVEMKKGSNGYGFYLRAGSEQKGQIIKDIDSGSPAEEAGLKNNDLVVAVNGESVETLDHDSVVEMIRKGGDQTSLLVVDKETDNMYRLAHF

A further assay deals with T9, PDZD2_2, O15018.
T9 sequence (O15018 329-429, limits assumed, looked up): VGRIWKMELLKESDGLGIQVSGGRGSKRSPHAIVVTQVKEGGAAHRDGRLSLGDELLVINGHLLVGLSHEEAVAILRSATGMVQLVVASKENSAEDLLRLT

The next assay concerns the target T10, TX1BP3, O14907.
T10 sequence (O14907 10-122, limits assumed, looked up): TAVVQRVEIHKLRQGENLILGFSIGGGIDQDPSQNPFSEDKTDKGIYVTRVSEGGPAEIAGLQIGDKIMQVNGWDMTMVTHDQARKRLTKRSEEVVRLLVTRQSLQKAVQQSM

The next assay has as its target T11, APBA1_2, Q02410.
T11 sequence (Q02410 742-832, limits assumed, looked up): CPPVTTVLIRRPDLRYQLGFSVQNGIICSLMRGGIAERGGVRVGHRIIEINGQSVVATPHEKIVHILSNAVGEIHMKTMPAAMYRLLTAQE

A further assay concerns the target T12, NHERF3_4, Q5T2W1.
T12 sequence (Q5T2W1 373-468, limits assumed, looked up): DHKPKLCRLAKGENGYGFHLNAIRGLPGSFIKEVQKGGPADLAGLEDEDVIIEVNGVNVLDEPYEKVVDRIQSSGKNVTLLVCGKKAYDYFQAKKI

Another assay deals with T13, CARD11, Q9BXL7.
T13 sequence (Q9BXL7 662-765, limits assumed, looked up): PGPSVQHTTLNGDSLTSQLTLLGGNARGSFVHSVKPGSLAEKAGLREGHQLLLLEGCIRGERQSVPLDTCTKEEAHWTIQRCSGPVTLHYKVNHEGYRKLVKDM

Another assay concerns the target T14, FRMPD1, Q5SYB0.
T14 sequence (Q5SYB0 52-145, limits assumed, looked up): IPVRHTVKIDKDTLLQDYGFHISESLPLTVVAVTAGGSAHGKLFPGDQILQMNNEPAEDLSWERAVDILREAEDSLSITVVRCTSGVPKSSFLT

Where [1] appears, read: plain residues with an end cap or a label only (N-terminal biotin on a linker: ado-ado).
[2] abbreviates: plain residues with an end cap or a label only (N-terminal biotin on a linker: ttds).
Setting [3] is: plain residues with an end cap or a label only (N-terminal biotin on a linker: none).

Sequence of DLG4_2, P78352 (P78352 155-259): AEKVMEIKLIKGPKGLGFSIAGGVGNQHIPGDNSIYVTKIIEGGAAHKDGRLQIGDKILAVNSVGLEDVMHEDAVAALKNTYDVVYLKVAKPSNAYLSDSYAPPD
Sequence of LIMK2, P53671 (P53671 143-248): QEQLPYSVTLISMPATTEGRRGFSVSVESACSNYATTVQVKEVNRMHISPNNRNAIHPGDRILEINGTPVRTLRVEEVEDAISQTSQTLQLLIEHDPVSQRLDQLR
Sequence of LAP2, Q96RT1 (Q96RT1 other isoform, or with tags, fused parts or gaps): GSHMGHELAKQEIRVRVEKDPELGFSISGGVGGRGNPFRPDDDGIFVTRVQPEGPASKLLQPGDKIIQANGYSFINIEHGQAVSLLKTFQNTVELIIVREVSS
Sequence of NHERF4_4, Q86UT5 (Q86UT5 464-550): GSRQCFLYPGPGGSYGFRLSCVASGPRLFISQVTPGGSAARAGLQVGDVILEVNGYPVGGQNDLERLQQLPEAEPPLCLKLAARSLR
Sequence of NHERF4_2, Q86UT5 (Q86UT5 220-308): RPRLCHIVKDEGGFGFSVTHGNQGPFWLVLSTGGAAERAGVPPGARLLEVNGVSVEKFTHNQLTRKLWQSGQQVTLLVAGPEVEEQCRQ
Sequence of LNX1_3, Q8TBB1 (Q8TBB1 500-596): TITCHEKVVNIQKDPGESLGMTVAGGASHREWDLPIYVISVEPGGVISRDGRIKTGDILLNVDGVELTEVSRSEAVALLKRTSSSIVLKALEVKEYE
Sequence of Inadl_3, Q8NI35 (Q8NI35 359-469): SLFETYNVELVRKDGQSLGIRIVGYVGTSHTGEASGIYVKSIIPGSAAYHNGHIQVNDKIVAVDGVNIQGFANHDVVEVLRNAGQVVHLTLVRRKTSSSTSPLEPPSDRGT
Sequence of FRMPD2_1, Q68DX3 (Q68DX3 770-861): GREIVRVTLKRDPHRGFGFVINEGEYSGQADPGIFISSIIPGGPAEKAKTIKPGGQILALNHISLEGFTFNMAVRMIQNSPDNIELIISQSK
Sequence of IL16_1, Q14005 (Q14005 210-306): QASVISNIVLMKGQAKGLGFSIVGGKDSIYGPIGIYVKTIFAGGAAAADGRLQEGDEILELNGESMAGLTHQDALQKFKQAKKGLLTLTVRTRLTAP

The term pKd denotes the Kd on a negative log10 scale, so that one unit is a factor of ten. In the case of RGGFGRQTQI [NCBP2L, A6PVI3], the pKd entry was “below the threshold” with MPP7, Q5T2T1 (setting [1]); “below the threshold” with LNX2_3, Q8N448 (setting [1]); “below the threshold” in the assay with MPP6, Q9NZW5 (setting [1]); “below the threshold” in the assay with FRMPD2_1, Q68DX3 (setting [1]); “below the threshold” with SHANK1, Q9Y566 (setting [1]); “below the threshold” with APBA2_2, Q99767 (setting [1]). Also, the pKd entry was “below the threshold” with MPDZ_10, O75970 (setting [1]); 4.64 with DLG4_2, P78352 (setting [1]); “below the threshold” with LIMK2, P53671 (setting [1]); “below the threshold” in the assay with DFNB31_2, Q9P202 (setting [1]); “below the threshold” with NHERF4_4, Q86UT5 (setting [1]); “below the threshold” with LAP2, Q96RT1 (setting [1]). Besides, the pKd result was “below the threshold” with NHERF3_3, Q5T2W1 (setting [1]); “below the threshold” with IL16_1, Q14005 (setting [1]); 3.76 with PDZD2_2, O15018 (setting [1]); “below the threshold” in the assay with NHERF4_2, Q86UT5 (setting [1]); 4.4 with TX1BP3, O14907 (setting [1]); “below the threshold” with Inadl_3, Q8NI35 (setting [1]). Further, the pKd entry is listed as “below the threshold” with LNX1_3, Q8TBB1 (setting [1]); “below the threshold” with APBA1_2, Q02410 (setting [1]); “below the threshold” with NHERF3_4, Q5T2W1 (setting [1]); “below the threshold” in the assay with CARD11, Q9BXL7 (setting [1]); “below the threshold” with FRMPD1, Q5SYB0 (setting [1]).
As for HRTCYLVTQL [ASIC3, Q9UHC3], the pKd in the assay with MPP7, Q5T2T1 (setting [2]) is 3.25; with LNX2_3, Q8N448 (setting [2]), “below the threshold”; with MPP6, Q9NZW5 (setting [2]) it was 3.45; with FRMPD2_1, Q68DX3 (setting [2]), 3.37; in the assay with SHANK1, Q9Y566 (setting [2]), 4.91; in the assay with APBA2_2, Q99767 (setting [2]), “below the threshold”. The pKd in the assay with MPDZ_10, O75970 (setting [2]) is 3.91; with DLG4_2, P78352 (setting [2]) it was 3.97; with LIMK2, P53671 (setting [2]), “below the threshold”; in the assay with DFNB31_2, Q9P202 (setting [2]), “below the threshold”; in the assay with NHERF4_4, Q86UT5 (setting [2]), 3.45; with LAP2, Q96RT1 (setting [2]) it was 4.02. The pKd was 3.52 with NHERF3_3, Q5T2W1 (setting [2]); “below the threshold” in the assay with IL16_1, Q14005 (setting [2]); 3.37 with PDZD2_2, O15018 (setting [2]); 3.21 in the assay with NHERF4_2, Q86UT5 (setting [2]); 5.08 with TX1BP3, O14907 (setting [2]); 3.33 in the assay with Inadl_3, Q8NI35 (setting [2]). The pKd with LNX1_3, Q8TBB1 (setting [2]) was 3.55; in the assay with APBA1_2, Q02410 (setting [2]), 3.78; with NHERF3_4, Q5T2W1 (setting [2]), 4.69; with CARD11, Q9BXL7 (setting [2]), “below the threshold”; with FRMPD1, Q5SYB0 (setting [2]), “below the threshold”.
As for DSKPPLPPDEWV [MERS-E, K9N5R3], the pKd result with MPP7, Q5T2T1 (setting [3]) is “below the threshold”; with LNX2_3, Q8N448 (setting [3]) it was “below the threshold”; in the assay with MPP6, Q9NZW5 (setting [3]), “below the threshold”; with FRMPD2_1, Q68DX3 (setting [3]) it was “below the threshold”; with SHANK1, Q9Y566 (setting [3]), “below the threshold”; with APBA2_2, Q99767 (setting [3]), “below the threshold”. The pKd result with MPDZ_10, O75970 (setting [3]) was “below the threshold”; with DLG4_2, P78352 (setting [3]) it was 3.59; with LIMK2, P53671 (setting [3]) it was “below the threshold”; with DFNB31_2, Q9P202 (setting [3]), “below the threshold”; with NHERF4_4, Q86UT5 (setting [3]), “below the threshold”; with LAP2, Q96RT1 (setting [3]) it was 5.24. Also, the negative logarithm of the Kd (pKd) result was “below the threshold” in the assay with NHERF3_3, Q5T2W1 (setting [3]); 3.64 in the assay with IL16_1, Q14005 (setting [3]); 5.11 with PDZD2_2, O15018 (setting [3]); “below the threshold” with NHERF4_2, Q86UT5 (setting [3]); 3.7 with TX1BP3, O14907 (setting [3]); 3.55 in the assay with Inadl_3, Q8NI35 (setting [3]). Further, the pKd entry with LNX1_3, Q8TBB1 (setting [3]) was “below the threshold”; with APBA1_2, Q02410 (setting [3]), 4.59; with NHERF3_4, Q5T2W1 (setting [3]) it was “below the threshold”; in the assay with CARD11, Q9BXL7 (setting [3]), “below the threshold”; with FRMPD1, Q5SYB0 (setting [3]), “below the threshold”.
Consider TGDTLEKFVEGL [CBP, Q92793], for which the pKd entry was “below the threshold” in the assay with MPP7, Q5T2T1 (setting [2]); “below the threshold” with LNX2_3, Q8N448 (setting [2]); “below the threshold” with MPP6, Q9NZW5 (setting [2]); “below the threshold” with FRMPD2_1, Q68DX3 (setting [2]); “below the threshold” in the assay with SHANK1, Q9Y566 (setting [2]); “below the threshold” with APBA2_2, Q99767 (setting [2]). Besides, the pKd is 3.67 with MPDZ_10, O75970 (setting [2]); “below the threshold” with DLG4_2, P78352 (setting [2]); “below the threshold” with LIMK2, P53671 (setting [2]); “below the threshold” with DFNB31_2, Q9P202 (setting [2]); “below the threshold” with NHERF4_4, Q86UT5 (setting [2]); “below the threshold” with LAP2, Q96RT1 (setting [2]). In addition, the pKd result was “below the threshold” with NHERF3_3, Q5T2W1 (setting [2]); “below the threshold” with IL16_1, Q14005 (setting [2]); “below the threshold” with PDZD2_2, O15018 (setting [2]); “below the threshold” in the assay with NHERF4_2, Q86UT5 (setting [2]); 4.03 with TX1BP3, O14907 (setting [2]); “below the threshold” in the assay with Inadl_3, Q8NI35 (setting [2]). For the same molecule, the pKd entry with LNX1_3, Q8TBB1 (setting [2]) was “below the threshold”; in the assay with APBA1_2, Q02410 (setting [2]) it was “below the threshold”; with NHERF3_4, Q5T2W1 (setting [2]), “below the threshold”; in the assay with CARD11, Q9BXL7 (setting [2]) it was “below the threshold”; in the assay with FRMPD1, Q5SYB0 (setting [2]), “below the threshold”.
